The values below come from US20060142171A1, “Novel alkaline protease” (priority 2003, published 2006).

One data set deals with casein. The data set can be described thus: Protease activity with casein as substrate (specific activity, pH and temperature profile). Type of data set: biochemical. The note with it: for Optimum pH for activity: assayed at 50° C. As for the experimental part:
The AL protease activity with 0.1-4% (w/v) casein and haemoglobin (Sigma), respectively, as protein substrates, was determined using a modified method of Ferrero et al. (1996). The reaction mixture in a total volume of 1 ml containing the substrate and an appropriate amount of the enzyme in 50 mM glycine-NaOH buffer, pH 10 was incubated at […] for 20 min, after which the reaction was terminated by addition of 0.5 ml trichloroacetic acid with subsequent centrifugation. To 0.5 ml supernatant was added 2.5 ml sodium carbonate followed by 0.5 ml of 1 M Folin-Ciocalteau Phenol reagent (Sigma). The reaction mixture was allowed to stand for 30 min-at room temperature before absorbance was measured at 660 nm. One unit of enzyme activity is defined as amount of the enzyme, which released 1 μg tyrosine per minute under the assay conditions.
Protease activity was determined using casein as substrate as described earlier [3.12]. The reaction mixture in a total volume of 2 ml was composed of 1% casein, 50 mM glycine-NaOH buffer, pH 10, and appropriately diluted enzyme. After 20 min incubation at 50° C. the reaction was terminated by adding equal volume of 10% trichloroacetic acid (TCA). After separation of the unreacted casein precipitate by centrifugation, 0.5 ml of clear supernatant was mixed with 2.5 ml of 0.5 M Na2CO3 and 0.5 ml of 1 N Folin-Ciocalteau's phenol reagent. After 30 min at 25° C., absorbance was measured at 660 nm against a reagent blank. One unit of protease activity was defined as the amount of enzyme that released 1 μg of amino acid equivalent to tyrosine per min under the standard assay conditions.
Both proteases were optimally active in the alkaline region.
The effect of temperature on activity of the two proteases was determined by assaying enzyme activity at different temperatures in glycine-NaOH buffer, pH 10, while the thermal stability was determined by incubating the enzymes at different temperatures followed by measuring the residual activity under standard conditions. These measurements were done both in the presence and absence of 5 mM Ca^2+. […] Its optimum temperature for activity was at 70° C. (FIG. 9A), but when incubated at that temperature the enzyme was inactivated within 1 h (FIG. 10A). […] At temperature values above 50° C. Ca^2+ was absolutely required for the thermal stability of AL-89 protease (FIG. 10B).
Assay of protease activity was performed according to Ferrero et al. with some modifications. One millilitre of the reaction mixture containing 1% casein in 50 mM glycine-NaOH buffer, pH 10.0 and an appropriate amount of enzyme was incubated at 50° C. for 20 min after which the reaction was terminated by addition of 0.5 ml of trichloroacetic acid and centrifuged. 2.5 ml sodium carbonate was added to 0.5 ml supernatant followed by 0.5 ml of 1 M Folin-Ciocalteau reagent. The reaction mixture was allowed to stand for 30 min at room temperature before measuring the absorbance at 660 nm. One unit of protease activity was defined as the amount of enzyme, which released 1 μg tyrosine per min under standard assay conditions.

The nature of data set [1]: Circular dichroism spectroscopy. Type of data set: physicochemical. As for the experimental part: The conformational stability of the AL protease was examined by circular dichroism (CD) spectroscopy and compared with that of Subtilisin Carlsberg (bacterial protease, type VIII; Sigma Chemical Co., St. Louis, USA). The CD spectra of the proteins were obtained on a Jasco spectropolarimeter model J-720, at 25° C. in the far UV range from 195 to 250 nm at a scan rate of 10 nm/min using a sample cell path length of 0.1 cm. The ellipticity values (θ) for every nm wavelength increase were obtained in mdeg directly from the instrument and were recorded online in a computer. An average of 6 scans was calculated and the corresponding no-enzyme spectra were subtracted for each sample.
In general terms: CD spectra are sensitive to the conformation of chiral molecules.

The next data set relates to keratin azure. Nature of the data set: Keratinolytic activity. The note with it: 10 mM glycine-NaOH, pH 10 at 50° C. The class given is biochemical. As for the experimental part:
The hydrolysis of keratin azure (Sigma) by the AL protease was determined according to the modified method of Santos et al. (1996). The reaction mixture (1.5 ml) comprising 0.5 ml of the enzyme solution and 10 mg keratin-azure in 10 mM glycine-NaOH buffer, pH 10 was incubated at 50° C. with constant shaking over 24 h period. The substrate was removed by centrifugation and liberation of the azo dye was measured at 595 nm. The reaction under similar conditions using heat-treated enzyme (by incubation in a boiling water bath for 15 min) was also run as a control. One unit (U) of keratinolytic activity was defined as an increase in the A595nm of 0.01 after 2 h.

The subject of a further data set is haemoglobin. Nature of the data set: Protease activity with haemoglobin as substrate. The class given is biochemical. The note with it: 50 mM glycine-NaOH, pH 10 at 50° C.
The next data set deals with oxidized insulin B-chain. Nature of the data set: Hydrolysis of oxidized insulin B-chain (MALDI-TOF). Type of data set: biochemical. Conditions: 50° C., enzyme-substrate molar ratio of 1:100, pH 9. As for the experimental part:
To 0.38 mg of the oxidized insulin B-chain (Sigma) dissolved in 1 ml of 10 mM Tris-HCl buffer, pH 9 was added 10 μl (5.5 units) of the AL enzyme. The mixture was incubated at 50° C. for 15 min and 12 h, respectively, after which one drop (approx 40 μl) of 0.1% (v/v) TFA was added to inactivate the enzyme.
Identification of the cleavage products was performed on a matrix assisted laser desorption ionisation reflectron-type time-of-flight (MALDI-TOF) mass spectrometer (REFLEX, Bruker-Franzen Analytik; Bremen, Germany).
Cleavage of oxidized insulin B-chain by the AL protease at 50° C. was investigated using an enzyme-substrate molar ratio of 1:100. The reaction products were analyzed by MALDI-TOF mass spectrometry and identified from the mass of corresponding peptide pairs.

Data set [2] in a line: Autolytic degradation by SDS-PAGE. Type of data set: physicochemical. Conditions: incubation at 50° C. up to 24 h; not shown. As for the experimental part: Autolytic degradation of the protease was investigated by SDS-PAGE. The AL protease and Subtilisin Carlsberg were individually incubated in 10 mM Tris-HCl buffer 8 for 24 h at 50° C. Electrophoresis of the enzyme samples taken at different time intervals was performed according to the method of Laemmli, on 12% polyacrylamide gel using a Mini Protean II equipment (Bio-Rad, Richmond, Calif.).

Where only a bound is given, the exact number is not on record here.

B1: AL protease: thermostable alkaline, non-Ca2+-dependent serine protease isolated from Nesterenkonia sp. nov. strain AL (DSM 15380); SEQ. ID. NO. 1 (protein, listed as Nesterenkonia sp.)
chain: QNPADSPHIGKVFFSTNQGDFVCSANIVASANQSTVATAGHCLHDGNGGQFARNFVFAPAYDYGESEHGVWAAEELVTSAEWANRGDFEHDYAFAVLETKGGTTVQQQVGTASPIAFNQPRGQYYSAYGYPAAAPFNGQELHSCHGTATNDPMGSSTQGIPCNMTGGSSGGPWFLGQGTGGAQNSVNSYGYTFLPDVMFGPYFGSGAQQNYNYAST
On to B1, for which the “Time to complete hydrolysis of casein” value in the data set with casein (50 mM glycine-NaOH, pH 10 at 50° C.) is reported as at most 20 min. Moreover, the “Optimum pH for activity” value in the data set with casein and in the data set on casein (listed as alkaline protease from Nesterenkonia sp. nov. strain) was 10 each time. Also, the “Activity as % of peak activity” value in the data set with casein (at pH 12) is “about 60%”. Further, the “Activity as % of maximum activity” value in the data set with casein (between pH 7.5 to 11.5) was “over 90%”. Also, the “Optimum temperature for activity” value in the data set with casein (glycine-NaOH buffer, pH 10, same in presence and absence of 5 mM Ca^2+) amounted to 70 °C. The molecule also had a Specific activity with casein (purified enzyme, casein as substrate, pH 10, 50° C., listed as Nesterenkonia sp. AL protease) of 1802.3 U/mg. Moreover, the “Ca^2+ dependence of activity and stability” value in the data set on casein (with and without 5 mM Ca^2+, all temperatures tested) is reported as “Ca^2+ independent”. For the same molecule, the “Secondary structure in the presence of SDS” value in data set [1] (0.1-1% (w/v) SDS, data not shown) is on record as “no alteration”. Further, the “Secondary structure after incubation” value in data set [1] (24 h at 50° C., 10 mM glycine-NaOH buffer, pH 10.0) is given as “undisturbed”. Further, the “Time of main hydrolysis of keratin-azure” value in the data set on keratin azure was 2 to 12 h. In the data set on haemoglobin, the “Time to complete hydrolysis of haemoglobin” value is at most 20 min. The “Initial cleavage site in oxidized insulin B-chain” value in the data set on oxidized insulin B-chain was “Leu^15-Ty^16”. Moreover, the “Degradation on gel electrophoresis” value in data set [2] was “unaltered”.
